Assay results reported in paper PMC11380581 (Cell, 2024).

Columns and labels:
[1] = target: Flag-tagged NRC4 co-expressed with HA-tagged Bs2 and AvrBs2 (Figure S6F) (N. benthamiana); assay: native gel or EMSA
[2] = target: NRC3-L21E-3xFlag (active NRC3); assay: negative-stain EM
negative-stain EM = target: the molecule itself; assay: negative-stain EM
cryo-EM structure [3] = target: the molecule itself; assay: cryo-EM structure
cryo-EM structure [4] = target: the molecule itself; assay: cryo-EM structure; remark: listed apart in the source
[5] = target: the molecule itself; assay: native gel or EMSA + other: negative-stain EM

Flag-tagged NRC4 co-expressed with HA-tagged Bs2 and AvrBs2 (Figure S6F) (from UniProt A0A5J6DCT7 1-881) (natural protein)
stoichiometry N [1]: 6

NRC3-L21E-3xFlag (active NRC3) (natural protein)
stoichiometry N [2]: 6

B1: NRC0-EEE-3XFlag (active NRC0) (natural protein)
chain: MADAVVEFELLNEKQLELYHVDLLSGVKDEVESLHRELSLMKAFLKDSREKRSEYEYVRELVSQITIVAYEAEDIIDTFVTNAAMQKARSTVRRAFHVFDHSSKLRNVAKEIESIKVKVKEIYDKKMFGIQSLHGGESSHRSPPQKRVPMVEEENVVGFDDEARKISSRLTNGSEELEIISIVGMGGLGKTTLAKKVYTDSSIEFHFYNRAWIYVSQLYSRKEVFLGILDSLSLITDEMYKMNDEKLAGELFSHLRSKRYLVVIDDVWTMEAWDDLQMAFPKTATGSRILLTTRNTEVALHANPEGLPHHLRFLTHEESWELLSKKVFRKGICPLELEDIGLQIAKKCYGLPLAIVVVSGLLLKKEKTRDWWKKIANDVSSYVARDPKQCMDVLALSYKHLPDHLKVCFIYFGVFPEDFEIPVWKLLRLWTSEGFVQKMGQECLEDTAEEYLEDLVDRNLVLVAKKRASGRIKTCRIHDMLRDLSVKMGSEEKFLEVFKESAQNHSLSPISKYHRRLCVHSHFLDFITSRPFGPNVRSFLCFASEEMELLREHTSFLHEAFRLVRVLDLKYINFPRFPTEIVQLVHLRYIALSGNFRVLPASISKLWNLETLIVGTKSRELDIQVDIWKMSQFKHLYTSGLSCLRGPPAKTRKDNADPFVRRNIQTISTVLPDCCKENILARTPGLRKLGIRGKLATLVATNGDSSLFDNLAKLDNLETLKLLNDTFPLPPSQCQIPGLPQSYKFPPNLKKLTLSDTFLDWSHISTLGMLPNLEVLKLKDYAFKGTQWEPLDGGFRLLRVLHIGRTNLEHWNASGHHFPRLQQVFLKHCSSLNEIPFGLVEVSSLQNIELFWPTPAAAASARIIQQEKQEGDIKDNVFKLVIYPPDI
stoichiometry N (negative-stain EM): 6

B2: NRC4 L9E D478V (NLR Required for Cell Death 4 with the L9E and D478V mutations) (natural protein, N. benthamiana)
chain: MADAVVNFEVENLLQLLTDNVKLIGSAKGELENLLKEVQHLKGFLDDAAKLPSDSEQWKVLVEEIQKTVHTAEDAVDKFVVQAKLHKEKNKMARILDVGHLATVRNLAAEVKGIHDQVKELRLNNQALQARPTLELPKKGSSETTQQGPALEDDEVVGFDEEANKVINRLVKESKDLDIIPVVGMPGLGKTTLARKIYKDPKLSYEFFGVHWVYVGQSYKIKDVFLNILKFFTRRTEDYQHEDVDALAKVIAGFINKGGRCLICLDDVWETKVIDYVKTIFPENEKGHRVMMTTRNKVLATYANSDPHDLKFLTPKESFELLVKRVFGKKPCPKDLVGHGESIAGKCGGVPLAVVVIAGALRGRPNTSDWIRVERNVVQHLYTNSEESCLKFVEMSYDHLPQEVQTCFLYCGVFPRGFDIPSWKVIRLWIAEGLIKPQESYTLEEIAEFYLNDLVNRNLVILQQKRSDGQIKTCRLHVMLHQFCKKEASNKWLFQEVSLTPDQAIPIEDPNKSRRLCIQPSNLKDFLSKKPSAEHVRSFYCFSSKEKQIRGLTPNDIKLIHKAFPLVRVLDVESLKFLFSKDFNQLFHLRYIAISGDFNAIPLTFGKFWNLQTLILNTSTSESTLDVKADIWNMLQLRHLHTNIPAKLQPPTATTSGKASCLQTLCMVAPESCEKEVLAKACHLKKLSIRGQMAAFLGAYKGGINNLVELKCLEQLKLLNDVLYMNKAPHLPQTFSQLVRTVKKLTLTNTRFAWSEADKLGQLESLEILKFKENAFAGDSWKPKMGFSALRVLWIERAEFETWEASEINFPVLRNLVLMSCDKLETVPFELANLSDLYEMRLENTSKAVKSAKAILESKTDKNIKFNLTIFPPEAGSKATQ
stoichiometry N (cryo-EM structure [3]): 6
stoichiometry N (cryo-EM structure [4]): 12

B3: wild type NRC4, Flag-tagged (natural protein, N. benthamiana)
chain: MADAVVNFLVENLLQLLTDNVKLIGSAKGELENLLKEVQHLKGFLDDAAKLPSDSEQWKVLVEEIQKTVHTAEDAVDKFVVQAKLHKEKNKMARILDVGHLATVRNLAAEVKGIHDQVKELRLNNQALQARPTLELPKKGSSETTQQGPALEDDEVVGFDEEANKVINRLVKESKDLDIIPVVGMPGLGKTTLARKIYKDPKLSYEFFGVHWVYVGQSYKIKDVFLNILKFFTRRTEDYQHEDVDALAKVIAGFINKGGRCLICLDDVWETKVIDYVKTIFPENEKGHRVMMTTRNKVLATYANSDPHDLKFLTPKESFELLVKRVFGKKPCPKDLVGHGESIAGKCGGVPLAVVVIAGALRGRPNTSDWIRVERNVVQHLYTNSEESCLKFVEMSYDHLPQEVQTCFLYCGVFPRGFDIPSWKVIRLWIAEGLIKPQESYTLEEIAEFYLNDLVNRNLVILQQKRSDGQIKTCRLHDMLHQFCKKEASNKWLFQEVSLTPDQAIPIEDPNKSRRLCIQPSNLKDFLSKKPSAEHVRSFYCFSSKEKQIRGLTPNDIKLIHKAFPLVRVLDVESLKFLFSKDFNQLFHLRYIAISGDFNAIPLTFGKFWNLQTLILNTSTSESTLDVKADIWNMLQLRHLHTNIPAKLQPPTATTSGKASCLQTLCMVAPESCEKEVLAKACHLKKLSIRGQMAAFLGAYKGGINNLVELKCLEQLKLLNDVLYMNKAPHLPQTFSQLVRTVKKLTLTNTRFAWSEADKLGQLESLEILKFKENAFAGDSWKPKMGFSALRVLWIERAEFETWEASEINFPVLRNLVLMSCDKLETVPFELANLSDLYEMRLENTSKAVKSAKAILESKTDKNIKFNLTIFPPEAGSKATQ
stoichiometry N [5]: 2

B4: NRC4 L9E (natural protein, N. benthamiana)
chain: MADAVVNFEVENLLQLLTDNVKLIGSAKGELENLLKEVQHLKGFLDDAAKLPSDSEQWKVLVEEIQKTVHTAEDAVDKFVVQAKLHKEKNKMARILDVGHLATVRNLAAEVKGIHDQVKELRLNNQALQARPTLELPKKGSSETTQQGPALEDDEVVGFDEEANKVINRLVKESKDLDIIPVVGMPGLGKTTLARKIYKDPKLSYEFFGVHWVYVGQSYKIKDVFLNILKFFTRRTEDYQHEDVDALAKVIAGFINKGGRCLICLDDVWETKVIDYVKTIFPENEKGHRVMMTTRNKVLATYANSDPHDLKFLTPKESFELLVKRVFGKKPCPKDLVGHGESIAGKCGGVPLAVVVIAGALRGRPNTSDWIRVERNVVQHLYTNSEESCLKFVEMSYDHLPQEVQTCFLYCGVFPRGFDIPSWKVIRLWIAEGLIKPQESYTLEEIAEFYLNDLVNRNLVILQQKRSDGQIKTCRLHDMLHQFCKKEASNKWLFQEVSLTPDQAIPIEDPNKSRRLCIQPSNLKDFLSKKPSAEHVRSFYCFSSKEKQIRGLTPNDIKLIHKAFPLVRVLDVESLKFLFSKDFNQLFHLRYIAISGDFNAIPLTFGKFWNLQTLILNTSTSESTLDVKADIWNMLQLRHLHTNIPAKLQPPTATTSGKASCLQTLCMVAPESCEKEVLAKACHLKKLSIRGQMAAFLGAYKGGINNLVELKCLEQLKLLNDVLYMNKAPHLPQTFSQLVRTVKKLTLTNTRFAWSEADKLGQLESLEILKFKENAFAGDSWKPKMGFSALRVLWIERAEFETWEASEINFPVLRNLVLMSCDKLETVPFELANLSDLYEMRLENTSKAVKSAKAILESKTDKNIKFNLTIFPPEAGSKATQ
stoichiometry N (negative-stain EM): 6
